Reference: US20030040461
Numbering of substitutions follows the chain as printed. Names and notes keep the numbering of the source.

T1: purified recombinant SLP-76
T1 sequence (Q13094 1-533, species assumed, looked up): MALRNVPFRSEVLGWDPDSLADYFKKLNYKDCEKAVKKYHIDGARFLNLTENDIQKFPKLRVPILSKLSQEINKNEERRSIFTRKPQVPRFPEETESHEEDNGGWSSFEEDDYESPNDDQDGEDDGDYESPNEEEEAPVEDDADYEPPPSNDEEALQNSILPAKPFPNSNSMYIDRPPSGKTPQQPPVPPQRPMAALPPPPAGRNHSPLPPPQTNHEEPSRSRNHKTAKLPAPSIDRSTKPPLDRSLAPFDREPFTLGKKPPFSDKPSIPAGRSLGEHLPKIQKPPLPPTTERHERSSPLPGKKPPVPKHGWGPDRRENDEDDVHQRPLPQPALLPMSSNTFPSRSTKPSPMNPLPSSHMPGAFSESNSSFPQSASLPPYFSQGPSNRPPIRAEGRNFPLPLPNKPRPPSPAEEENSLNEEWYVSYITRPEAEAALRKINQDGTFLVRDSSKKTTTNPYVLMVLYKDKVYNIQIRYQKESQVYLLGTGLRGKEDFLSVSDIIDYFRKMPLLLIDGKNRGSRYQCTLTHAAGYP

B1: FLAG-BTK wild-type (murine BTK with N-terminal 3XFLAG tag) (enzyme)
chain: MAAVILESIFLKRSQQKKKTSPLNFKKRLFLLTVHKLSYYEYDFERGRRGSKKGSIDVEKITCVETVIPEKNPPPERQIPRRGEESSEMEQISIIERFPYPFQVVYDEGPLYVFSPTEELRKRWIHQLKNVIRYNSDLVQKYHPCFWIDGQYLCCSQTAKNAMGCQILENRNGSLKPGSSHRKTKKPLPPTPEEDQILKKPLPPEPTAAPISTTELKKVVALYDYMPMNANDLQLRKGEEYFILEESNLPWWRARDKNGQEGYIPSNYITEAEDSIEMYEWYSKHMTRSQAEQLLKQEGKEGGFIVRDSSKAGKYTVSVFAKSTGEPQGVIRHYVVCSTPQSQYYLAEKHLFSTIPELINYHQHNSAGLISRLKYPVSKQNKNAPSTAGLGYGSWEIDPKDLTFLKELGTGQFGVVKYGKWRGQYDVAIKMIREGSMSEDEFIEEAKVMMNLSHEKLVQLYGVCTKQRPIFIITEYMANGCLLNYLREMRHRFQTQQLLEMCKDVCEAMEYLESKQFLHRDLAARNCLVNDQGVVKVSDFGLSRYVLDDEYTSSVGSKFPVRWSPPEVLMYSKFSSKSDIWAFGVLMWEIYSLGKMPYERFTNSETAEHIAQGLRLYRPHLASERVYTIMYSCWHEKADERPSFKILLSNILDVMDEES
modifications: N-terminal 3xFLAG tag
B2: FLAG-BTK R28C (xid mutant of murine BTK with N-terminal 3XFLAG tag) (enzyme)
chain: B1 chain with R28C
modifications: N-terminal 3xFLAG tag
B3: FLAG-BTK E41K (gain of function mutant of murine BTK with N-terminal 3XFLAG tag) (enzyme)
chain: B1 chain with E41K
modifications: N-terminal 3xFLAG tag
B4: FLAG-BTK K430R (dominant negative mutant of murine BTK with N-terminal 3XFLAG tag) (enzyme)
chain: B1 chain with K430R
modifications: N-terminal 3xFLAG tag

Test system: T1, purified recombinant SLP-76

Protein | phosphorylation of SLP 76 (incorporation of phosphotyrosine into the substrate, IP kinase assay) | kinase activity
B1 | addition of immunoprecipitated wild-type BTK resulted in phosphorylation of both BTK itself and the SLP 76 target | 
B2 | Addition of BTK immunoprecipitated from the xid construct cell lysate resulted in hyperphosphorylation of the SLP 76 target | the kinase activity of BTK isolated from the xid mutant stable cell pool was significantly higher (approximately 10 fold)
B3 | Phosphorylation using extracts from the “gain of function” and dominant negative mutant cell contracts appeared to be reduced compared to the wild-type BTK | 
B4 | Phosphorylation using extracts from the “gain of function” and dominant negative mutant cell contracts appeared to be reduced compared to the wild-type BTK | 
